This experiment deals with neonatal Fc Receptor, FcRn (UniProt P55899). As to the kind of experiment: SPR. In general terms: SPR reads the build-up and loss of mass on a sensor chip optically.

As a reminder, the Kd is the constant that tells how readily two partners part at equilibrium. High values mean a looser complex, low ones a tighter complex. For the substance “ACE2-IgG4-Fc fusion construct 1 (ACE2 Q18-G732 wildtype fused to IgG4-Fc S228P) (from UniProt Q9BYF1 18-732)”, the Kd came out at 2.9 µM. The figure for “ACE2-IgG4-Fc fusion construct 3 (ACE2 Q18-G732 H374N/H378N fused to IgG4-Fc S228P) (from UniProt Q9BYF1 18-732)” is 3.9 µM.

The record behind these values is publication PMC8579703.
